This data set can be described thus: label from the status in PepcDB records.
On to “MSPAIITLLILVVAIIIFISDRLPMGLVAFMVPMALYFFGVIGVKDIFASIVNENVILIIAMCVLGAAFFKTGLAWQSSKILLKYAKTERSLSVLIFMISGVMSAFVSNSGTVAVLIPIVLGIAGTSQIKPIKLLMPLVFGATIGADISIIGSPGNLIAKNTIETFSKGNLSVPFFEYAKIGIPLMIACALLLFFFGSRLIPDRDGHEQSDVQMDYSHIPEWHKLLTLIVFVLAILGMVATDYVKFLPPIHIIACCAAIVLVLTGVLNQKETFNSFETLTVFMLAFMMPLGAALNSTGAGEMIARAVISVTGNSGVIVIMASLWILTWALTQVMSNTAACTLLCPVGWTIAQSIGADPRAVVIAIFIASSVAVCTPMAIPANSMIIGPGNVKFKDFLKPGLAISFVCFIVSMILLPVFYPFY”, for which the protein production entry is recorded as “failed”.
Consider “MQRPHVQEAEATAAPQQRTGASATFAELLKRVKAEGLLDLDPRYYIGRLALNTTLLLVGFAAFFALGDSWWQLVVALWMGLCGGQSAFMWHDAGHKAMFRSKKAASAVGYFHANLVNGVSFGWWVNHHNRHHSNPNHLDMDPDIGRRTAIFDIKQYPTRRGTQKFIVRYQSVLFFALLVTESFKMLKTAVLSIAQGKTKRPVLESFLLLARAAVYLTLVFTVLSPVLAVAFVLVQQAALGVYFGMIFAPNHKGMEVRDGDEETLDWLERQVLTSRNIRPSLFIDFLYGGLNYQVEHHLFPAMPQKNLARARELTRAYCAERGVPYHEVGFWASYREVASFLHEVSAPVRRGDVEEQIRRQAGQAA”, for which the protein production result is “failed”.
As to “MREQLRAHGIGPNDIHTLLLSHFHADHIAGLRDFPRARILASEPGWRAVRGLSGLAAVRQAFLPGLLPPDMESRLSFVEAFALQALPADLAPFSHGRDVSGCGEVFVVDLPGHAAGHLGAFVLGDAGWTLLASDAAWSEEGYREMRGPSELSFLVQHSRRSYYDTLARLHALHRGGRVDILLTHQEETPCLEHHHHHH”, the protein production entry is “failed”.
In the case of “MANNSPNAAVSVQSPTHQQALACLRELVGHPEAQFHDGQYEAIEALVDAGRRALVVQRTGWGKSAVYFVASLLLRRRGSGPTLIVSPLLALMRDQVAAAARAGVRAVAINSANALEWDTVLAQLAADEVDVLLVSPERLTNPSFRENQLPELIRRTGLLVIDEAHCISDWGHDFRPDYRRIADLIAQLPESVPVLATTATANSRVVHDIEEQLGAGVLTIRGALGRESLRLGVLTLPDSRDRLGWLLTHLADMPGSGIIYTLTVSAAEDTARLLAEAGHNVLSYTGRTDPADRERAEQLLKDNQVKALVATSALGMGFDKPDLGFVIHLGAPSSPVAYYQQVGRAGRGAANADVLLLPGSEDREIWQYFATASMPSAEKAAAVLGVLGEAGSALSTVALEARVDLRRTPLELLLKVLAVDGAVERVGGGWRSTGQPWNYDAERYARIAEARVDEQDSMVIYQDTAGCRMEYITSVLDDETAASCGRCDNCAGRWFPVDVAASAADAAGQTLRRAGIAVEPRLQWPSGMDRLGVAAKGKIKPDESVSEGRILARLTDLGWGGALRELFAAGAPDHAVDPAMLQACVQVLREWSGAEGGTPWSGVGRPAAVVSIPSRSKPQLVESLAQGIAGIGRMPYLGQLQPQYGGPTGARGGNSAYRLAGVWDRLVVGPELAQALAGTGGQPVLLVDDLIDSRWTMTVSARALRQAGVSAVLPLALAQAG”, the protein production result is “failed”.
With “MMKRVAVTGAAGRVGTLLRPLLRSHFEHLSLIDLQEPDELGENENFVRADFTKLDEATAALKDIDGVIHLAGIASGTDMNAILHANVLGTYNLYEAARINKVQRVVYASSNHATGFYPRGQLVSPLDPMRPDSPYGLSKCWGELVAGLYYDTSGIRSLSIRIGNAGTYPNSERSIAIWISARDLAQLVRIGLSHPLIAATVVYGVSDTEEKWWENDLATRLGYQPQDRPRDHALIEEGSEGPVALAFQGGGFCEINHDGTIRMRDADGLAKSPETVE”, the protein production entry is “failed”.
Turning to “MGTFIEPSKVTLKDYLNHWLEIKSMSIEKSTFAGYKAFINQHVIPSIGMVTLHKLNVIHIQKCYKTAIDKGIANNSILLMHRILKSALNLAVKQNIISRNPADFAEIPLEHHHHHH”, the protein production result is recorded as “failed”.
Consider “MIWRGEKLISNKVKIVRLLNKSKKSLLRGIFSRTTVIAILLILQLLFLLASYSWLEQYRVWLATVEHILTIGAVLYLVNSEMDALSRVTWLILVMIAPLLGAMFLMYTKFDWGYRGLKQRLETLIDESQIYLEDDPETLNQLKSSTSTTYHLVQYFEKAHGNFPVYRNTDVTFLPTGEAFFEKMKEELLKAKKYIFLEFFIIDEGIMWGEILSILEQKVEEGVEVRILYDGMIEITKLSFDYTKRLEKIGIKAKAFSPISPFISTYYNYRDHRKIVVIDGVVGMTGGVNLADEYINHIELFGHWKDSGIMLKGKAVDSFLLLFLQMWSITEEKMLVAPYLGVHDDLVENEGYVIPYGDSPLDTDKVGENVYIDILNHAREYVYIMTPYLILDSELEHAIQFAAERGVDVRIIMPGIPDKPIPYALAKTYYQALTKSGVKIYEYTLGFVHSKIFLSDNTKAVVGTINLDYRSLYHHFECAVYLYKVDAIQDIYRDYMDTLNKSRLVSLKDINNIPKFQKVIGIVTKTIAPLL”, for which the protein production entry is on record as “failed”.
“MLLEGLLFVLAAGIFTAIVCGFGTLPFFFVDEISDRVTVALWGLAGGIMLFASLFGFIFEGLRDGTVFEVGAGLVVGVVVVVVADRIITGYEFEPRDIPDADFRKLVLIVGVLTVHSFPEGVALGVAFADLGIEGDLVLAGLAIPGLAIFITAAISIQNIPEGLAVAIPLHTYGIANWKIFGWAVFSSIPQPIGAGIAYVFVTTAREFLPFGFGFASGAMIFLVLHDIFPEGLDHGSDLPGHGRRELLVGIAVGVAIMLPVMLLTE”: the protein production result was “failed”.
“MSSALLRVAYAYDRLRAHPPEVAGQIATAMASAVHPKGEEPVFLELGVGTGRIALPLIARGYRYIALDADAAMLEVFRQKIAGVDRKVQVVQADARAIPLPDESVHGVIVVHLWHLVPDWPKVLAEAIRVLKPGGALLEGWDQAEESPEWTLQERWRAFAAEEGFPVERGLHAKRLKEVEEALRCLGLKPRTREVARWREERTPREALEALSERLYSFTQGLPEPVHARVMERLWAWAEAELGDLDRPFPVEKRFLLRVSRLG”: the protein production result is recorded as “failed”.
Consider “MILNIVTIVSNFIFIALFYQLFVDLFDWSKMIKMSPQNISKLKVFILLISIVGGYVVSHFLLEVIQLCQSIFWALQ”, for which the protein production entry is reported as “failed”.
In the case of “MAQEVSPESYKDLVLFLATAGIVAPIFKRLKINPILGYLLAGVILGPFGLGRFIPYAPWLDYFTVDNPDEIAQLAEFGVVFLLFMIGLELSWERLRLMRRWVFGLGAVQVIGCSLALGAGGMLLGLEPVVALTIGAALTLSSTAIAVPVLAERRRLHSEAGRATFSVLLFQDLAVAPILITLAILGRGNGSFQLQDLLALAPAALGLAVIVLVGRLALRPMLKSVAKAKSEEMFMAACLLVIIGAGMVAALSGLSMALGAFVAGVLLAETEYRHEVEVKIEPFKGLLLSLFFVSLGIRLDLSLLAAQPAAILGTALGLLVLKTAVVFGSGLLMGLNRRAAIEAALILAAGGEFAFVLLDNAMSAQVVPPAIGQAVLVSATLTMFLIPGLAALGGYLGRKNAPLPVSEAPPSTANEPDRLGPEPAGQVLVIGYGRVGRLVGDMLGRHDLPWIAVEREARLVEQGRRDGARIYYGDASRLELLERCGLATARAVVVTMDAFEVAEAVVVAARGARPDVPIVVRARDARHAARLYELGATDAVPETIEASLQLSEAVLVDIGVPMGLVIASIHERRDEYRKKLNRPDALGGRRRRLRDATLR”, the protein production entry is reported as “failed”.
For the sequence “MMSTHYIAGQWLAGQGETLESLDPVGQGVVWSGRGADATQVDAAVCAAREAFPAWARRPLEQRIELLERFAATLKSRADELARVIGEETGKPLWESATEVTSMVNKVAISVQAFRERTGEKSGPLADATAVLRHKPHGVVAVFGPYNFPGHLPNGHIVPALLAGNCVVFKPSELTPKVAELTLKAWIQAGLPAGVLNLVQGGRETGVALAAHRGLDGLFFTGSSRTGNLLHSQFGGQPQKILALEMGGNNPLVVEEVADLDAAVYTIIQSAFISAGQRCTCARRLLVPQGAWGDALLARLVAVSATLRVGRFDEQPAPFMGAVISLSAAEHLLKAQEHLIGKGAQPLLAMTQPIDGAALLTPGILDVSAVAERPDEEFFGPLLQVIRYSDFAAAIREANATQYGLAAGLLSDSRERFEQFLVESRAGIVNWNKQLTGAASSAPFGGIGASGNHRPSAYYAADYCAYPVASLESPSVSLPATLTPGIS”, the protein production result is reported as “not failed”.
For the sequence “MTGEVPGAAAQVFARAEALRDLGRPAEALGLVRQGLASDPHDVTLLVLATTLSLALEDYAQAADFATQAAAQAPGWALPLALLAQARRLADDPAGGKQAAQAALHLDPDEALAHFEVGLATALEAEQAPLWHRRRLLTEARAAASRVEALWPGQADGPALQALIDIVAGHWPQHEANIARALEREPDDSFAHNVRLLGLQARHSGETVPQLYERLRSRPDDVFARSQCVPTFPSRAGCGSIGGAGGGFFHCWW”, the protein production entry was “failed”.
For “MADYNNAVVFYDTSGIEYSKQIKKTLERGFERECFLINLDNRENTLSRLNLAMKTSKYVIFLFSSMYSNENMLDEAKTAFNSDKHIISLKLDDPELKKQISIHQSEFEDNYGLSKKVNDEVEKLKKMEKKGTDFVESQISFNMGNIYFNFGKYAEAIRCYKKAVKIIPDFVDALHNFNSLSNMNLFDMGEEPKKPVLYKDVTIDELVPDIFSNTVQKEPEEPQKYSELEPEELEDLILDGEIGENLEEIGSEDELTEKIDDKLPEIDESKDKSKAQPEDELNETFEEGIEYETFEVIDAEEKNEISDENLEISSLEPEFEEKSIFKLEKETEQPELEENLEPVLEVPEELVEDVEILDASEEDIEKELENQEVIIEEKLETLDELLDKSELESELVEEHTYEIDNNEFLEILSFANTLYESGDFEAAKTEYKKAIALNPGNSEVHNHYGCLLEYLEKYGEAEIEFKKAVALDGSNSKAYNNLATFLAKSEKYDEAEEHYKKAIEIAPDYWAAIYNLAAMYAALKRYDEAVAQVKSMVKIFRSDGNIKEVLELKKLIKHLKKLKIQKS”, the protein production entry was “failed”.
For the sequence “MASSVLEMIKEEVTCPICLELLKEPVSADCNHSFCRACITLNYESNRNTDGKGNCPVCRVPYPFGNLKPNLHVANIVERLKGFKSIPEEEQKVNICAQHGEKLRLFCRKDMMVICWLCERSQEHRGHQTALIEEVDQEYKEKLQGALRKLMKKAKICDEWQDDLQLQRVDWENQIQINVENVQRQFKGLRDLLDSKENEELQKLKKEKKEVMEKLEESENELEDQTELVRDLISDVEHHLQLSTLEMLQGANCVLRRSQSLSLQQPQSVPQKRKRTFQAPDLKGMLQVYQGLMDIQQYWVHMTLHARNNAVIAINKEKRQIQYRSYNTVPVSEIYHLGVLGYPALSSGKHYWEVDISRSDAWLLGLNDGKCAQPQLHSKEEMGIKKNLHSQIKQNVLFQPKCGYWVIGMKNPSVYNAFDECSITHNSSILVISLPDCPSRVGVFLDRKAGTLSFYDVSNCGALIYRFYDPAFPVEVYPYFNPMKCSEPMTICGPPS”, the protein production entry is “not failed”.
Take “MDFRRAPELIGRLQEQAVVPREQGVQRLMRLALEYWLLPVLLLAAAVRFYDLTAAAIWGDEGSSLVLSQYSLSEIWFHAARDVHPPLYFMLLRGWIELFGDGIFSIRTFSALPGIVTVGLGMWLVALLATRRAAILAGVLLALLPTAVRYSQEVRMYALLGLLLLGATLALVYWLRQPSRPGYLVSYALLMTLAFYTHYFTAFCVLAHWLYLAVSGVRAEGGGRLVTRPAWWLANAAIVLLFLPWVPELLDLLRHMDELKANGDVGWEPVVTWSSLPAMVWQLLIQDEGDNLPGALFVGMPLLLLAVCSVLAWRDGAPARFGGLLASFTLLPLLLVFAVSFASPVFIERYLTAYALGLPMIMAVLIDRWLKTARLVALALLLGFVGLEAVGLKNNIDVDANDQISVMVDYVNRHYVAGDRIVISDMLWYLSYVYYNRTDAQPMLYTPPLPGGTSSRPNAYGFGTLIDHPDQVYLDQLSALSVGSGRYWLVGSDDQSEEFAPLPQGWHKVGQFAAGGTRARLFVLCGSAAGASCAGQ”: the protein production result is given as “failed”.
